# Results published in article PMC11267260, “Atom‐Modified gDNA Enhances Cleavage Activity of TtAgo Enabling Ultra‐Sensitive Nucleic Acid Testing”.
# T1: TtAgo (Thermus thermophilus Argonaute) (Thermus thermophilus, UniProt Q746M7 1-685)
# T1 sequence: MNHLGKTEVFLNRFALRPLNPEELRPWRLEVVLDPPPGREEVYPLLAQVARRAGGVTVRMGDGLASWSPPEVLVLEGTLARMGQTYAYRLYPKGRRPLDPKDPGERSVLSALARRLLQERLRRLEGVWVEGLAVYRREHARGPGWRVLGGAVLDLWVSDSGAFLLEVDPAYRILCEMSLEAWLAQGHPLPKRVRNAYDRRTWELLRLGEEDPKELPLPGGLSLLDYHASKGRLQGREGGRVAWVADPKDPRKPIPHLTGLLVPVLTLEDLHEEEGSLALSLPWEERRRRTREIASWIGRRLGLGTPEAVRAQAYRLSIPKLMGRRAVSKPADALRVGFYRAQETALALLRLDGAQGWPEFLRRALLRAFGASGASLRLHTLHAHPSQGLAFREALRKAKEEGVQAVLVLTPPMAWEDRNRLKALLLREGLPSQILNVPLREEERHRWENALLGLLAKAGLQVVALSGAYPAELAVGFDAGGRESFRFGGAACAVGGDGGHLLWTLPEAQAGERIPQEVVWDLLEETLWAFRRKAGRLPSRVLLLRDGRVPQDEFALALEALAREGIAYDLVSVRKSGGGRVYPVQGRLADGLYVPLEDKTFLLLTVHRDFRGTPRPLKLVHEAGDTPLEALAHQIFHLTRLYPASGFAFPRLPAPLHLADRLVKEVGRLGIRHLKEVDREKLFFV
# B1: F1-gDNA + target (mixed)
# DNA 1: CATGCATCGATCAGCTAC
# DNA 2: CTGCAGTCGTCGTAGCTGATCGATGCATGC
# modifications: 2'-F on C18 of guide
# Biological target: T1, TtAgo (Thermus thermophilus Argonaute)
# Test: EMSA; ternary complex; higher than with C-gDNA; BLI in 1x reaction buffer (composition, pH and temperature not given in the material); EMSA conditions not given
# Settings: protein: recombinant; tags: Ni-column purified; dialyzed with TEV protease (tag not described); guide 1-18 pairs with target 12-29; target overhangs 11 nt 5', 1 nt 3'
binder,measurement,value
B1,binding result,binds
